Reference: patent US20250382354A1
Where a chain is given by its changes, count along the chain named.

B1: fp.001 (antibody, V domains shown)
VH: VQLVESGGGVVQPGRPLRLSCSGSGFIFSNYAMHWVRQAPGKGLEWVAIISFDARNKRYADSVEGRFTISRDNSKNILYLQMNSLRLEDSAVYFCARDLFLSDYDNGVYDPTRGGFDYWGQGTLVTVSS
VL: EIVMTQSPATLSLSPGERATLSCRASQSVNNRLAWYQQKLGQPPRLLISGASTRATGIPARFTGSGSGTEFTLTISSLQSEDFAVYYCQQYHDWPLLSFGGGTKVEIK
B2: fp.002 (antibody, V domains shown)
VH: VQLVESGGGVVQPGTSLRLSCAGSGFNFDNYAIHWVRQAPGQGLEWVAIISYEARNKKYAGSVTGRFSISRDNSKSMVYLQMDSLRGEDTAVYYCARDLFLSDYDRSGYDPTRGGFDLWGQGTLVTVSS
VL: EIVMTQSPATLSVSPGERATLSCRASQSVSSSLAWYQHKLGQAPRLLIYGASTRATGIPGRFSGSGSGTEFTLTISSLQSEDVAIYYCQQYGDWPLVTFGGGTKVEIK
B3: fp.003 (antibody, V domains shown)
VH: VQLVESGGGVVQPGTSLRLSCTASGFSFSNYAMHWVRQAPGKGLEWVAIISFDTRNKEFADSVKGRFSISRDNSKNSLNLQMNSLRPEDTGVYYCARDLFLSDYDSRGYEPSRGGFDYWGQGTLVTVSS
VL: B1 VL with L13V, N30S, N31S, R32S, S49Y, T63S, Q79K, F83S, H92N
B4: fp.004 (antibody, V domains shown)
VH: VQLVESGGGVVQPGTSLRLSCVASGFTFSNYAMHWVRQAPGKGLEWVAIISFDTRNTASAASVKGRFNISRDNSKNSLYLQMNSLRPEDTGVYYCARDLFLSDYDSRGYDPITGGFDCWGQGTLVTVSS
VL: EIVMTQSPAALSVSPGEGATLSCRASQSVGSRLAWYQQKLGRPPRLLIYGASTRATGIPARFSGSGSGTEFTLTISSLQSEDFAVYYCQQYNDWPLLTFGGGTKVKIK
B5: fp.005 (antibody, V domains shown)
VH: VQLVESGGGVVQPGNSLRLSCAASGFRFNNYAMHWVRQAPGKGLEWVAIISYEARNEKYADSVKGRFSISRDNAKNTLYLQMNSLRADDTGVYYCARDLFLSDYDTSGYDRTRGGFDYWGQGALVTVSS
VL: B2 VL with S31N, S32G, K39R, L40F, A43P, G60T, V83F, I85V, G92D, V97I
B6: fp.006 (antibody, V domains shown)
VH: VQLVESGGGVVQPGGSLRLSCAASGFNFNNYALHWVRQAPGKGLEWVAIISYEARNKKYGVSVMGRFSISRDNSKSIMYLEMNSLRVEDTGVYYCARDLFLSDYDRSGYDPTRGGFDHWGQGTLVTVSS
VL: B2 VL with K39R, L40F, Y49S, I85V
B7: fp.008 (antibody, V domains shown)
VH: VQLVESGGGVVQPGRSLRLSCRASGFRFNNYAMHWVRQAPGKGLEWVAIISYEARNEKYAASVKGRFSISRDNAKNTLYLQMNSLRPEDTAIYYCARDVFLSDYDQSGYDVTRGGFDYWGQGTLVTVSS
VL: B2 VL with R18S, L40F, G60D, T69M
B8: fp.010 (antibody, V domains shown)
VH: EVQLLESGGGLVQPGGSLRLSCAASGFTFSTYAMNWVRQAPGKGLEWVSAISSSGLSTQYADSVRGRFTISRDTSKNTLYLHMNSLRAGDTAVYYCAKVEYSGYDPRGPFDSWGQGTLVTVSS
VL: DIQMTQSPSTLSASVGDRVTITCRASQSISGWLAWYQQKPGRAPKLLIYKASSLERGVPSRFSGSGSGTEFTLTISSLQPDDFATYYCQEYSSYPLCTFGQGTKLEIK
B9: fp.011 (antibody, V domains shown)
VH: EVQLLESGGGLVQPGGSLRLSCAGSGFTFNNYAMTWVRQAPGRGLEWVSAISGSGGSSHYADSVKGRFTITRDNSKNTLYLQMNSLRAEDTAVYYCAFIDYYSGWSYYYGLDVWGQGTTVTVSS
VL: EIVLTQSPATLSLSPGERATLSCRASQGVRTYVAWYQQKPGQAPRLLIYDASNRATGIPARFSGSGSGTDFTLTISSLEPEDFAVYYCQQRYNWPLCSFGQGTKLEIK
B10: hr2.012 (antibody, V domains shown)
VH: QVQLVQSGAEVKKPGASVKVSCKASGYTFTSHYIHWVRQAPGQGLEWMGIIKPSGGNTIYAQTFQGRVTMTRDTSTSTVYMELRSLTSDDTAVYYCARDQDHGLQRWGQGTLVTVSS
VL: QSVLTQPPSVSAPPGQKVTISCSGSSSNIGNNFVSWYQQLPGTAPKLLIYDNIERPSGIPDRFSGSRSGTSATLGITGLQTGDEADYYCGTWDTSLGAWVFGGGTKVTVL
B11: hr2.013 (antibody, V domains shown)
VH: QVQLVQSGAEVKKPGASVKISCKASGYTFTNNYMNWVRQAPGQGLEWMGIIKPSSGSTIYAHKFQGRVTMTRDTSTSTVYMEVRSLTSEDTAVYYCARDQDHGLQNWGQGTLVTVSS
VL: B10 VL with P13A, P14S, S21Y, G30A, N31S, L40F, I53N, E54Q, V107L
B12: hr2.014 (antibody, V domains shown)
VH: QVQLVQSGAEVKKPGASVKVSCKASGYTFTTYAVHWLRQVPGQRPEWIGWINAANGNTKYSEKFQGRVTITRDTSASTAYMDLRSLRSEDTAVYYCARLLVVRDDPYYYGMDVWGQGTTVTVSS
VL: not shown
B13: hr2.015 (antibody, V domains shown)
VH: QVQLVQSGAEVKKPGASVKVSCKASGYTFSSYYVNWVRQAPGQGLEWLGIINRSGSSTIYAQKFQGRVTMTRDTSTSTVYLELSSLRSEDTAVYYCARDQDHALHWGQGTLVTVSS
VL: B10 VL with P13A, N31S, F33Y, I53S, G97S, V107L
B14: hr2.094 (antibody, V domains shown)
VH: EVQLVESGGGLVQPGGSLRLSCAASGFTFSTFWMTWVRQAPGKGLEWVANIKSDGSEKYYVDSVKGRFTISRDNAKNSLYLQMNSLRAEDTAVYYCATWFGLHWGQGTLVTVSS
VL: DIVMTQSPDSLAVSLGERASINCKSSQTVLYSSNNKNYLAWYQQKPGQPPKLLIHWASTRDSGVPDRFSGSGSGTDFTLTISSLQAEDVAVYYCQQYHRIPWTFGRGTKVEIK
B15: hr2.016 (antibody, V domains shown)
VH: EVQLLESGGGLVQPGGSLRLSCAASGFMFSKYAMTWVRQTPGKGLEWVSVISGGGGSTYYADSVKGRFTISRDNSKNTLYLQMNSLRAEDTAVYYCAKLLVVFVIDYWGQGALVTVSS
VL: EIVLTQSPGTLSLSPGERATLFCRASQSVSSNLAWYQQKPGRAPRLLISGASSRATGIPDRFSGSGSGTDFTLTISRLEPEDFAVYYCQQYGSSPPTFGQGTKVEIK
B16: CV3-25 (antibody)
chain 1: QVQLVESGAEVKKPGESLKISCKGSGYTFTRYWIGWVRQMPGKGLEWMGIIYPGDSDTRYSPSFQGHVTISADKSISTAYLQWNSLKASDTAMYYCARLPQYCSNGVCQRWFDPWGQGTLVTVSS
chain 2: EIVLTQSPSSVSASVGDRVTITCRASQGISSWLAWYQQKPGKAPKLLIYAASSLQSGVPSRFSGSGSGTDFTLTISSLQPEDFATYYCQQGNSFPYTFGQGTNLEIK

Target: 229E FP peptide (229E)
Assay: peptide ELISA

Binder | EC50 [µg/mL]
B1 | 0.0232
B2 | 0.0176
B3 | 0.0201
B4 | 0.0202
B5 | 0.0175
B6 | 0.0121
B7 | 0.019
B8 | 0.135
B9 | 0.0503

Target: FCoV-KU2 FP peptide (FCoV-KU2)
Assay: peptide ELISA

Binder | EC50 [µg/mL]
B3 | 0.0295
B5 | 0.028
B6 | 0.0149

Target: HKU1 FP peptide (HKU1)
Assay: peptide ELISA

Binder | EC50 [µg/mL]
B1 | 0.0298
B2 | 0.0256
B3 | 0.0238
B4 | 0.0272
B6 | 0.0168
B7 | 0.0219
B8 | 0.0372
B9 | 0.0197

Target: HKU4 HR2 peptide (HKU4), A3EX94
Assay: peptide ELISA

Binder | EC50 [µg/mL]
B10 | 0.0184
B11 | 0.0181
B12 | 0.0457
B13 | 0.05
B14 | 0.0157
B15 | 0.00744

Target: HKU5 HR2 peptide (HKU5), A3EXD0
Assay: peptide ELISA

Binder | EC50 [µg/mL]
B10 | 0.0204
B11 | 0.0292
B12 | 0.0312
B13 | 0.0467
B14 | 0.0192
B16 | 1.57
B15 | 0.0256

Target: HKU9 HR2 peptide (HKU9), A3EXG6
Assay: peptide ELISA

Binder | EC50 [µg/mL]
B14 | 0.227
B16 | 0.358

Target: Hu_PDCoV FP peptide (Hu_PDCoV)
Assay: peptide ELISA

Binder | EC50 [µg/mL]
B2 | 0.0215
B4 | 0.0343

Target: MERS FP peptide (MERS), K9N5Q8
Assay: peptide ELISA

Binder | EC50 [µg/mL]
B1 | 0.0369
B2 | 0.0358
B3 | 0.0349
B4 | 0.0386
B5 | 0.04
B6 | 0.0228
B7 | 0.0361
B8 | 0.0593
B9 | 0.0363

Target: MHV HR2 peptide (MHV)
Assay: peptide ELISA

Binder | EC50 [µg/mL]
B10 | 0.0177
B11 | 0.043
B13 | 0.0543
B14 | 0.0189
B16 | 0.0239
B15 | 0.0266

Target: NL63 FP peptide (NL63), Q6Q1S2
Assay: peptide ELISA

Binder | EC50 [µg/mL]
B1 | 0.0214
B2 | 0.0245
B3 | 0.0249
B4 | 0.0267
B5 | 0.0231
B6 | 0.0144
B7 | 0.0226
B8 | 0.0451
B9 | 0.0261

Target: OC43 FP peptide (OC43), P36334
Assay: peptide ELISA

Binder | EC50 [µg/mL]
B1 | 0.0175
B2 | 0.0211
B3 | 0.0149
B4 | 0.0222
B5 | 0.0244
B6 | 0.0134
B7 | 0.0235
B8 | 0.0421
B9 | 0.0218

Target: SADS HR2 peptide (SADS)
Assay: peptide ELISA

Binder | EC50 [µg/mL]
B10 | 0.023
B11 | 0.042
B12 | 0.705
B13 | 0.0731
B15 | 0.0738

Target: SARS-CoV FP peptide (SARS-CoV), P59594
Assay: peptide ELISA

Binder | EC50 [µg/mL]
B1 | 0.0289
B2 | 0.0285
B3 | 0.0285
B4 | 0.03
B6 | 0.0157
B7 | 0.0267
B9 | 0.023

Target: SARS-CoV-2 FP peptide (SARS-CoV-2)
Assay: peptide ELISA

Binder | EC50 [µg/mL]
B1 | 0.0249
B2 | 0.032
B3 | 0.0369
B4 | 0.0352
B5 | 0.0295
B6 | 0.0331
B7 | 0.0366
B8 | 0.119
B9 | 0.0363

Target: SARS-CoV-2 HR2 peptide (SARS-CoV-2), P0DTC2
Assay: peptide ELISA

Binder | EC50 [µg/mL]
B10 | 0.0196
B11 | 0.0317
B12 | 0.0357
B13 | 0.047
B14 | 0.0835
B16 | 0.00968
